± gives the standard deviation of the averaged measurements.
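Note: ATP exposure 15 min at 22 °C before imaging.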

The data set has as its system ATP. In words: switch fluorescence ratio, 500 uM ATP over buffer (Cy3 cluster intensity, sum of 5 cycles each) (fold (ratio)); higher = stronger signal-on switching upon ATP binding; sequences stand for … in TCGTCGGCAGCGTCAGATGTGTATAAGAGACAGTTTTTTTTTTTTTTTTTTTTTTTTT…TC. The following applies: aptamer strand: ATP DNA aptamer (quencher-CACCTGGGGGAGTATTGCGGAGGAAGG + anchor), 100 nM annealed; ATP concentration: 500 uM. In a few lines: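 Switching-strand clusters labelled with Cy3 on a modified Illumina MiSeq flow-cell were annealed to 100 nM quencher-labelled ATP aptamer, imaged in selection buffer, and re-imaged after 15 min with 500 uM ATP at 22 °C. This was done over five cycles with NaOH stripping and re-annealing in between. The fluorescence ratio is summed target-cycle over summed buffer-cycle Cy3 intensity per cluster, averaged per switch-domain sequence, excluding clusters outside 100-1000 RFU.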
Turning to GGTGATTCTG, the switch fluorescence ratio was determined as 0.965 ± 0.038.
On to GGCAGCCTTT, for which the switch fluorescence ratio was 1.0169 ± 0.00028.
As for GGGTATAACA, the switch fluorescence ratio was 1.004 ± 0.0083.
With AGGGAGGGAG, the switch fluorescence ratio was 0.97 ± 0.035.
The figure for ATTGGGGCTG is 0.9677 ± 0.006; for CGTTTATAGG it is 1.015 ± 0.009.
In the case of GATTGAGCCC, the switch fluorescence ratio was found to be 0.971 ± 0.037.
Take ATATGAAGAA: the switch fluorescence ratio was 0.968 ± 0.01.
The figure for TCTATGAAAA is 0.9818 ± 0.004; for AATGAATAGA it is 1.012 ± 0.008; for CGTATGGTTG it is 1.06 ± 0.09.
In the case of GCACTTCCCT, the switch fluorescence ratio worked out at 1.19 ± 0.014.
In the case of GCTTGTCGGT it was 1.022 ± 0.0096; in that of ATAAACTATA, 1.04 ± 0.06.
The figure for TTTGTGTCGT is 0.982 ± 0.053; for ATGCAGAGAG it is 1.01 ± 0.031; for CAGTGTTATG it is 0.97 ± 0.014.
In the case of GGAACGGGTG, the switch fluorescence ratio came out at 1.09 ± 0.17.
As to AATCACGGAG, the switch fluorescence ratio came out at 1.019 ± 0.0061.
As for GGTTAGGAAA, the switch fluorescence ratio was found to be 0.998 ± 0.021.
In the case of GAACTAGTAT, the switch fluorescence ratio was 1.01 ± 0.013.
Take AAGATTGTGT: the switch fluorescence ratio worked out at 0.9849 ± 0.0017.
As to CGGGGGCGGC, the switch fluorescence ratio was found to be 0.974 ± 0.014.
As for TGAGTATTTG, the switch fluorescence ratio amounted to 0.98 ± 0.025.
Regarding TGGGGTGGGA, the switch fluorescence ratio amounted to 0.991 ± 0.029.
On to TTTTGGGATT, for which the switch fluorescence ratio turned out to be 1.03 ± 0.06.
For the sequence GGTTTCGTAG, the switch fluorescence ratio was 1.01 ± 0.027.
GACGGCGCAG: the switch fluorescence ratio is 1.06 ± 0.14.
CTAATTGGCG: the switch fluorescence ratio was 1.02 ± 0.04.
Turning to TGCAAAAGGG, the switch fluorescence ratio amounted to 1.024 ± 0.0074.
The figure for AGCTTTGCTA is 0.9582 ± 0.0072.
Turning to AAAGGTTTTC, the switch fluorescence ratio turned out to be 0.9804 ± 0.0084.
In the case of GGTTTACGCT, the switch fluorescence ratio came out at 0.996 ± 0.027.
In the case of ATGGTGGATG it was 0.9626 ± 0.0052.
Consider AATAAAGGGA, for which the switch fluorescence ratio turned out to be 0.9841 ± 0.0045.
Regarding ATGCAGAGTA, the switch fluorescence ratio is 1.01 ± 0.018.
In the case of TGGGGGTTG it was 1 ± 0.032; in that of GTCTAATATG, 0.9716 ± 0.0048; in that of TCGGGGGTGT, 1.02 ± 0.029.
For CAGTTTGTTC, the switch fluorescence ratio is 0.987 ± 0.022.
Regarding AGTGGTTGTG, the switch fluorescence ratio is 0.973 ± 0.0069.
TATAATGTTT: the switch fluorescence ratio came out at 1.02 ± 0.048.
As to TAAGGAGACA, the switch fluorescence ratio worked out at 1.01 ± 0.045.
The figure for CAATGGGCTC is 1.016 ± 0.0084.
In the case of TATTGTGGGG, the switch fluorescence ratio was determined as 1 ± 0.044.
In the case of TTTCTGGAGA it was 1.05 ± 0.05.
With ATGGGGTATG, the switch fluorescence ratio was determined as 0.987 ± 0.024.
With CAATGGCGTA, the switch fluorescence ratio turned out to be 1.013 ± 0.00084.
With TGGGTAGGTC, the switch fluorescence ratio stood at 1.014 ± 0.0014.
With CAGTGCGCCT, the switch fluorescence ratio is 0.996 ± 0.036.
For the sequence CGAGTCAGTG, the switch fluorescence ratio came out at 0.979 ± 0.065.
In the case of CCAGAAGGGG, the switch fluorescence ratio worked out at 1.52 ± 0.89.
As to TTATAGGCAG, the switch fluorescence ratio is 0.987 ± 0.01.
In the case of AGTCAGATTC it was 1 ± 0.058; in that of CAGAAAAGCT, 1.07 ± 0.034.
Turning to AGATGCCTTC, the switch fluorescence ratio came to 1.01 ± 0.029.
In the case of ATCAATGACG it was 0.95 ± 0.059; in that of AAAATGAAGA, 0.993 ± 0.026; in that of AACTCCAGGT, 1.2 ± 0.011.
The figure for ATTCCTGGGA is 1.03 ± 0.018; for GGAACTTGGT it is 0.928 ± 0.087.
The figure for CATCTTGAAT is 1 ± 0.046; for TCTGAAGGGG it is 1.12 ± 0.11; for GTATTTTTGA it is 1.003 ± 0.0091.
TGGTAGATGG: the switch fluorescence ratio came out at 1 ± 0.022.
TACCTATTTT: the switch fluorescence ratio was 1.035 ± 0.0014.
For GGGGTGGGGT, the switch fluorescence ratio amounted to 1 ± 0.052.
Take GTTTATCTGC: the switch fluorescence ratio worked out at 1.02 ± 0.025.
In the case of GGTCATAGGT it was 0.994 ± 0.022.
As to TCCTGGTTTT, the switch fluorescence ratio came out at 0.996 ± 0.046.
As for GGGGTTGTTT, the switch fluorescence ratio was 1.03 ± 0.08.
With CGCTGGAGGG, the switch fluorescence ratio stood at 1.02 ± 0.093.
As for AGCTGATTC, the switch fluorescence ratio was 1.031 ± 0.0099.
The figure for CCAGAGGAGG is 1.01 ± 0.076; for CGGGTCTGCT it is 0.985 ± 0.022.
In the case of CCGTTTGAAA, the switch fluorescence ratio came to 1.01 ± 0.006.
In the case of TCGAATTCGC, the switch fluorescence ratio came out at 1.0071 ± 8.5e-05.
ACCAGGCCGC: the switch fluorescence ratio amounted to 1.08 ± 0.03.

These data come from the supplement of paper PMC10126150.
